B1: HMA6 nucleotide binding and phosphorylation domains (HMA6^N/P, residues 576-853) (domain or fragment, Arabidopsis thaliana, UniProt Q9SZC9 576-853, looked up)
chain: RGLLLRGGDILEKFSLVDTVVFDKTGTLTKGHPVVTEVIIPENPRHNLNDTWSEVEVLMLAAAVESNTTHPVGKAIVKAARARNCQTMKAEDGTFTEEPGSGAVAIVNNKRVTVGTLEWVKRHGATGNSLLALEEHEINNQSVVYIGVDNTLAAVIRFEDKVREDAAQVVENLTRQGIDVYMLSGDKRNAANYVASVVGINHERVIAGVKPAEKKNFINELQKNKKIVAMVGDGINDAAALASSNVGVAMGGGAGAASEVSPVVLMGNRLTQLLDAME
notes: also called N/P domain of HMA6; source: expressed and purified
B2: HMA8 nucleotide binding and phosphorylation domains (HMA8^N/P, residues 526-806) (domain or fragment, Arabidopsis thaliana, UniProt B9DFX7 526-806, looked up)
chain: RGYLIRGGDVLERLASIDCVALDKTGTLTEGRPVVSGVASLGYEEQEVLKMAAAVEKTATHPIAKAIVNEAESLNLKTPETRGQLTEPGFGTLAEIDGRFVAVGSLEWVSDRFLKKNDSSDMVKLESLLDHKLSNTSSTSRYSKTVVYVGREGEGIIGAIAISDCLRQDAEFTVARLQEKGIKTVLLSGDREGAVATVAKNVGIKSESTNYSLSPEKKFEFISNLQSSGHRVAMVGDGINDAPSLAQADVGIALKIEAQENAASNAASVILVRNKLSHVVD
notes: also called N/P domain of HMA8; source: expressed and purified

Target: the molecule itself
Assay: not stated; oligomeric state of the purified N/P domains and of their truncated fragments 'in solution'

| Protein | stoichiometry N |
| --- | --- |
| B1 | 2 |
| B2 | 2 |

— paper PMC5089723, “Structural Insights into the Nucleotide-Binding Domains of the P1B-type ATPases HMA6 and HMA8 from Arabidopsis thaliana” (PLoS ONE, 2016)
